Experimental data reported in patent US20250195578A1, “MEDIUM COMPOSITION FOR CULTURING URINE-DERIVED STEM CELL, METHOD FOR ISOLATING AND CULTURING URINE-DERIVED STEM CELL USING SAME, URINE-DERIVED STEM CELL WITH IMPROVED THERAPEUTIC FUNCTION FOR RENAL DISEASE, AND CELL THERAPY PRODUCT COMPOSITION CONTAINING SAME” (EHLBIO CO., LTD., priority 2021, published 2025).

B1: FGF23: growth factor added to the culture medium (Sigma-Aldrich) (protein, UniProt Q9GZV9 25-251, looked up)
Fibroblast growth factor 23: YPNASPLLGSSWGGLIHLYTATARNSYHLQIHKNGHVDGAPHQTIYSALMIRSEDAGFVVITGVMSRRYLCMDFRGNIFGSHYFDPENCRFQHQTLENGYDVYHSPQYHFLVSLGRAKRAFLPGMNPPPYSQFLSRRNEIPLIHFNTPIPRRHTRSAEDDSERDPLNVLKPRARMTPAPASCSQELPSAEDNSPMASDPLGVVRGGRVNTHAGGTGPEGCRPFAKFI
B2: PTH: parathyroid hormone (PTH), medium additive (Sigma-Aldrich) (peptide, UniProt P01270 32-115, looked up)
Parathyroid hormone: SVSEIQLMHNLGKHLNSMERVEWLRKKLQDVHNFVALGAPLAPRDAGSQRPRKKEDNVLVESHEKSLGEADKADVNVLTKAKSQ
modifications: Parathyroid hormone

How the values were obtained:
urine-derived stem cells = assay: Optimal additive concentration: cell proliferation rate of urine-derived stem cells; format: cell-based, human; details: enhancement in proliferation relative to added dosage
Description: (§1) In this Example, cell proliferation rate or klotho gene analysis was conducted with various concentrations of lipid mixture (CDLC), T3, FGF23, Calcifediol, and PTH in the TM8 culture medium to explore their optimal concentrations (see FIG. 5).
Specifically, CDLC was used to compensate for the decrease in cell proliferation rate caused by low serum usage, while T3 was used to facilitate the proliferation of urine-derived stem cells with characteristics of epithelial cells. In this example, evaluation was made of the improvement of cell proliferation rate in urine-derived stem cells in various concentration ranges of lipid mixture and T3 to determine their optimal concentrations.
(§2) Additionally, in this Example, to explore the optimal concentrations while excluding the interactions among the substances, each substance was individually added to the TM8 basal medium (hereinafter referred to as proliferation or klotho gene TM8-Basal), and cell expression was analyzed and compared. The TM8 medium containing all substances at their optimal concentrations was used as the control group (FIG. 6).

klotho gene = assay: Optimal additive concentration: klotho gene expression in urine-derived stem cells; format: cell-based, human; details: for effect on klotho gene expression of addition to TM8 medium: compared to control group, dose-dependent; for optimal concentration (klotho gene expression): enhancement in gene expression relative to added dosage
Description: as §1
Furthermore, FGF23, Calcifediol, and PTH that are added to the culture medium of the present disclosure are growth factors and hormones that interact through the endocrine system in the human kidney. The klotho proteins in the human body mediate these interactions. The inventors aimed to enhance the expression of klotho proteins in urine-derived stem cells by mimicking the endocrine system in the human body through the composition of the culture medium. In this Example, evaluation was made of the enhancement of klotho gene expression in urine-derived stem cells in various concentration ranges of FGF23, Calcifediol, and PTH to determine their optimal concentrations.
as §2

| Molecule | optimal concentration (cell proliferation) (urine-derived stem cells) [nM] | effect on klotho gene expression of addition to TM8 medium (klotho gene) | optimal concentration (klotho gene expression) (klotho gene) |
| --- | --- | --- | --- |
| N[C@@H](Cc1cc(I)c(Oc2ccc(O)c(I)c2)c(I)c1)C(=O)O [T3, Triiodo-L-thyronine] | 10 |  |  |
| C=C1CC[C@H](O)C/C1=C/C=C1\CCC[C@]2(C)[C@@H]([C@H](C)CCCC(C)(C)O)CC[C@@H]12 [Calcifediol, reference compound] |  | increased klotho gene expression | 100 nM |
| B1 |  | increased klotho gene expression | 10 ng/mL |
| B2 |  | increased klotho gene expression | 100 nM |
